# Read-outs that look alike come from different tables or passages of the source.
# How the values were obtained:
# [1] = molecular target: Full length UFC1, residues 1–167 (UniProt Q9Y3C8); experiment: ITC; VP-ITC, 25 °C; UBA5 peptides (~400 µM) titrated into 20–25 µM binding partner; 25 mM HEPES pH 7.5, 100 mM NaCl; one-site model; a single profile for each interaction
# [2] = molecular target: Full length UFC1, residues 1–167 (UniProt Q9Y3C8); experiment: as above; remark: listed apart in the source
binder,measurement,setting,value
"GAMEDSGESLEDLMAKMKNM [UBA5 C-terminal region R3, residues 388–404]",Ka,[1],30000 M⁻¹
same,Kd,[1],10 µM
same,dH,[1],-4.99 kcal/mol
same,stoichiometry N,[1],0.95
same,Kd,[2],> 11 µM
